Key:
[1] = Luminescence activity of proteins expressed in cell-free in vitro transcription-translation system; type: biochemical; conditions: no microsomal membrane (−); 1 μg coelenterazine
Text: Using the expression vector, pKAZ-CMV, PSKAZ-CMV, pOL-CMV or pSOL-CMV prepared in Example 10, the 19 kDa or 35 kDa protein constituting Oplophorus luciferase was expressed by means of the in vitro transcription-translation system. As a positive control, pRL-CMV expressing Renilla luciferase was used. The in vitro transcription-translation system is capable of producing a protein from a recombinant plasmid or mRNA prepared from the plasmid and is particularly useful for the luminescence system with high sensitivity for the detection. In this Example, a commercially available in vitro translation kit (TNT in vitro transcription/translation kit; Promega) was used. A fraction of microsomal membranes capable of cleaving the signal sequence for secretion was also added in order to confirm the existence of the signal sequence in the expressed proteins. The in vitro translation mixture (25 μl in total) containing 0.5 μg of the plasmid DNA, 20 μl of rabbit reticulocyte lysate, 1 μl of 1 mM methionine and 2.5 μl of microsomal membranes was incubated at 30° C. for 90 min and then 1 μl of the mixture was subjected to the measurement of its luminescent activity. […] The reaction was started by the addition of a test sample and the intensity of the luminescence was measured by the luminometer.

[2] = Luminescence activity after expression in COS7 cells, coelenterazine substrate; type: cell-based; conditions: for Luminescence activity in Cell extracts, Coelenterazine: COS7 cell extracts; for Luminescence activity in Medium, Coelenterazine: COS7 culture medium
Protocol: (§1) Expression of the proteins as a component of Oplophorus luciferase in mammalian cultured cells COS7 was conducted using the expression plasmids pKAZ-CMV, PSKAZ-CMV, pOL-CMV and pSOL-CMV constructed in Example 10 and pRL-CMV expressing Renilla luciferase as a control for the transfection of the host. COS7 cells (2×10^5 cells) were grown in a 35 mm well-plate containing 3 ml of Dulbecco's modified Eagle's media (Gibco BRL, Rockville, Md., USA) supplemented with 10% (v/v) heat-inactivated fetal calf serum (Gibco BRL), 100 U/ml penicillin and 100 μg/ml of streptomycin. The cells were cultured at 37° C. for 24 hours and then transfected with 2 μg of each plasmid DNA using FuGENE6 transfection reagent (Rosche Diagnostics, Mannheim, Germany). After further incubation for 36 hours, cells were separated from cultured media by centrifugation. The separated cells were suspended in 0.5 ml of phosphate-buffered saline, and subjected to repeated freeze-thawing at a temperature between 37° C. and −80° C. to obtain a cell extract. One μg of coelenterazine or bisdeoxy-coelenterazine was added as a substrate into the cell extract and the intensity of the luminescence was measured by the luminometer.

[3] = Luminescence activity after expression in COS7 cells, bisdeoxy-coelenterazine substrate; type: cell-based
Protocol: as §1

[4] = Renaturation of urea-solubilized 19 kDa protein with glycerol, luminescence activity; type: biochemical; conditions: for Luminescence Activity: 25° C., 30 minutes; for Luminescence Activity, relative value in parentheses: relative to 0 % glycerol
Protocol: E. coli cells constructed in Example 12 which contain the expression vector pHis-KAZ and express the 19 kDa protein were disrupted by the sonication in 20 ml of a buffer comprising 20 mM Tris-HCl, pH 7.5. After centrifugation (12,000×g, 20 minutes), the precipitated fraction was subjected to the solubilization by treating with 20 ml of 20, mM Tris-HCl, pH 7.5 containing 8 M urea and then centrifuged (12,000×g, 20 minutes) to afford a soluble fraction. […] Subsequently, the soluble fraction was subjected to the nickel-chelated column chromatography and the desired protein was eluted by the linear gradient of imidazole from 0 to 0.3 M to give approximately 95% purity.
Consequently, the protein was subjected to the renaturation step by treating with glycerol (the final concentration: from 0 to 90% (v/w)) as a solvent at 25° C. for 30 minutes to afford the 19 kDa protein renatured. As described above, the intensity of the luminescence was measured by the luminometer.

[5] = Preservation test of renatured 19 kDa protein, luminescence activity; type: biochemical; conditions: for luminescence activity on preservation: 4° C.; for Luminescence activity after preservation: 4 ° C.
Protocol: Subsequently, the 19 kDa protein renatured was subjected to the preservation test, which comprises preserving the protein in the absence or presence of 50% (v/w) or 70% (v/w) glycerol at 4° C. for 30 days and then measuring its luminescence activity as mentioned above.

B1: 19 kDa Protein: 19 kDa photoprotein component of Oplophorus luciferase, positions 28–196 of SEQ ID NO: 2, without signal sequence (protein, listed as Oplophorus gracilorostris)
chain: FTLADFVGDWQQTAGYNQDQVLEQGGLSSLFQALGVSVTPIQKVVLSGENGLKADIHVIIPYEGLSGFQMGLIEMIFKVVYPVDDHHFKIILHYGTLVIDGVTPNMIDYFGRPYPGIAVFDGKQITVTGTLWNGNKIYDERLINPDGSLLFRVTINGVTGWRLCENILA
Luminescence Activity [1]: 1242.0 rlu | Luminescence activity in Cell extracts, Coelenterazine [2]: 2,273.0 rlu | luminescent intensity compared with pRL-CMV ([2]; COS7 cells): equivalent to that from pRL-CMV | Luminescence activity in Medium, Coelenterazine [2]: 3.62 rlu | Luminescence activity in Cell extracts, Bisdeoxy-coelenterazine [3]: 2,124.0 rlu | luminescence activity before renaturation ([4]; after 8 M urea solubilization and nickel-chelated column, before glycerol): no luminescence activity | Luminescence Activity ([4]; glycerol 0 % v/w): 83 rlu | Luminescence Activity, relative value in parentheses ([4]; glycerol 0 % v/w): (1.0) | Luminescence Activity ([4]; glycerol 10 % v/w): 147 rlu | Luminescence Activity, relative value in parentheses ([4]; glycerol 10 % v/w): (1.8) | Luminescence Activity ([4]; glycerol 20 % v/w): 375 rlu | Luminescence Activity, relative value in parentheses ([4]; glycerol 20 % v/w): (4.5) | Luminescence Activity ([4]; glycerol 30 % v/w): 1,258 rlu | Luminescence Activity, relative value in parentheses ([4]; glycerol 30 % v/w): (15.2) | Luminescence Activity ([4]; glycerol 40 % v/w): 1,818 rlu | Luminescence Activity, relative value in parentheses ([4]; glycerol 40 % v/w): (24.9) | Luminescence Activity ([4]; glycerol 50 % v/w): 3,822 rlu | Luminescence Activity, relative value in parentheses ([4]; glycerol 50 % v/w): (46.0) | Luminescence Activity ([4]; glycerol 60 % v/w): 4,860 rlu | Luminescence Activity, relative value in parentheses ([4]; glycerol 60 % v/w): (58.6) | Luminescence Activity ([4]; glycerol 70 % v/w): 4,462 rlu | Luminescence Activity, relative value in parentheses ([4]; glycerol 70 % v/w): (53.8) | Luminescence Activity ([4]; glycerol 80 % v/w): 2,842 rlu | Luminescence Activity, relative value in parentheses ([4]; glycerol 80 % v/w): (34.2) | Luminescence Activity ([4]; glycerol 90 % v/w): 2,536 rlu | Luminescence Activity, relative value in parentheses ([4]; glycerol 90 % v/w): (30.6) | luminescence activity on preservation ([5]; absence of glycerol, 30 days): significantly decreased | Luminescence activity after preservation ([5]; glycerol 0 % v/w, 0 day): 102 rlu | Luminescence activity after preservation ([5]; glycerol 0 % v/w, 30 days): 23 rlu | Luminescence activity after preservation ([5]; glycerol 50 % v/w, 0 day): 3,840 rlu | Luminescence activity after preservation ([5]; glycerol 50 % v/w, 30 days): 3,734 rlu | luminescence activity on preservation ([5]; presence of glycerol (50% or 70% v/w), 30 days): maintained without decreasing

B2: 35 kDa Protein: 35 kDa protein component of Oplophorus luciferase, positions 40–359 of SEQ ID NO: 4, without signal sequence (protein, listed as Oplophorus gracilorostris)
chain: AVACPAAEDIAPCTCKVGEGDVMDMDCSKVTSDAELASIFSKTFPSNTFRELFIEFNREITTLTADSLGAATFTKIAITSCTQLKTIEENAFMASAATLEKLVLLKNDLSSFPFEEMSQYTKLNWLELSVNSITGWPALSSDTLANLILFRNPIGNIPVDAFQTLPNIEQFNCFDCSITEVEAGTFTRSPKLQKLVLGYNGLTSLPVGAIKLHGHGPTTSNLGITNNQIISFPEGAVEGIQGILGIDFNRVTSLSEEVWRPILENLFQFSLLNNPLACVCDVMWLIDSPELLAKIKGNPRCAGGKRLKNLDPAVFHAMCQ
Luminescence Activity [1]: <0.001 rlu | Luminescence activity in Cell extracts, Coelenterazine [2]: <0.001 rlu | Luminescence activity in Medium, Coelenterazine [2]: 2.45 rlu | Luminescence activity in Cell extracts, Bisdeoxy-coelenterazine [3]: <0.001 rlu

From patent publication US7125697B2, “Luciferase and photoprotein” (Chisso Corporation, priority 2000, dated 2006)
